In PMC9583936 (Biochemistry, 2022):
Read-outs that look alike come from different tables or passages of the source. *1 amine or outer side, *2 acyl side, *3 side chain or, on linkers, in order; H or OH if unused. Where no end group is shown, it is not given here. [ ]: non-standard residue; d: D form. Leu(4-F) = γ-19F-leucine (4-fluoro-leucine), CC(C)(F)C[C@H](N[*:1])C(=O)[*:2]; Phe(4-F) = N[C@@H](Cc1ccc(F)cc1)C(=O)O

Tests used:
[1] = target: the molecule itself; assay: 19F solid-state NMR CODEX
[2] = target: the molecule itself; assay: 19F solid-state NMR CODEX; remark: listed apart in the source

| Protein | stoichiometry N [1] | stoichiometry N [2] |
| --- | --- | --- |
| Ac-ETGTLIVNSV[Leu(4-F)]LFLAFVVFLLVTLAILTALR-NH2 (SMILES CC[C@H](C)[C@H](NC(=O)[C@H](C)NC(=O)[C@H](CC(C)C)NC(=O)[C@@H](NC(=O)[C@@H](NC(=O)[C@H](CC(C)C)NC(=O)[C@H](CC(C)C)NC(=O)[C@H](Cc1ccccc1)NC(=O)[C@@H](NC(=O)[C@@H](NC(=O)[C@H](Cc1ccccc1)NC(=O)[C@H](C)NC(=O)[C@H](CC(C)C)NC(=O)[C@H](Cc1ccccc1)NC(=O)[C@H](CC(C)C)NC(=O)[C@H](CC(C)(C)F)NC(=O)[C@@H](NC(=O)[C@H](CO)NC(=O)[C@H](CC(N)=O)NC(=O)[C@@H](NC(=O)[C@@H](NC(=O)[C@H](CC(C)C)NC(=O)[C@@H](NC(=O)CNC(=O)[C@@H](NC(=O)[C@H](CCC(=O)O)NC(C)=O)[C@@H](C)O)[C@@H](C)O)[C@@H](C)CC)C(C)C)C(C)C)C(C)C)C(C)C)C(C)C)[C@@H](C)O)C(=O)N[C@@H](CC(C)C)C(=O)N[C@H](C(=O)N[C@@H](C)C(=O)N[C@@H](CC(C)C)C(=O)N[C@@H](CCCNC(=N)N)C(N)=O)[C@@H](C)O) [γ-19F-Leu18 labeled ETM (transmembrane domain of the SARS-CoV-2 envelope protein, residues 8-38)] | 5 | – |
| ETGTLIVNSVLLFLA[Phe(4-F)]VVFLLVTLAILTALR-NH2 (N-terminus assumed; SMILES CC[C@H](C)[C@H](NC(=O)[C@H](C)NC(=O)[C@H](CC(C)C)NC(=O)[C@@H](NC(=O)[C@@H](NC(=O)[C@H](CC(C)C)NC(=O)[C@H](CC(C)C)NC(=O)[C@H](Cc1ccccc1)NC(=O)[C@@H](NC(=O)[C@@H](NC(=O)[C@H](Cc1ccc(F)cc1)NC(=O)[C@H](C)NC(=O)[C@H](CC(C)C)NC(=O)[C@H](Cc1ccccc1)NC(=O)[C@H](CC(C)C)NC(=O)[C@H](CC(C)C)NC(=O)[C@@H](NC(=O)[C@H](CO)NC(=O)[C@H](CC(N)=O)NC(=O)[C@@H](NC(=O)[C@@H](NC(=O)[C@H](CC(C)C)NC(=O)[C@@H](NC(=O)CNC(=O)[C@@H](NC(=O)[C@@H](N)CCC(=O)O)[C@@H](C)O)[C@@H](C)O)[C@@H](C)CC)C(C)C)C(C)C)C(C)C)C(C)C)C(C)C)[C@@H](C)O)C(=O)N[C@@H](CC(C)C)C(=O)N[C@H](C(=O)N[C@@H](C)C(=O)N[C@@H](CC(C)C)C(=O)N[C@@H](CCCNC(=N)N)C(N)=O)[C@@H](C)O) [4-19F-Phe23 labeled ETM (transmembrane domain of the SARS-CoV-2 envelope protein, residues 8-38)] | 5 | – |
| ETGTLIVNSVLL[Phe(4-F)]LAFVVFLLVTLAILTALR [4-19F-Phe20 labeled ETM (transmembrane domain of the SARS-CoV-2 envelope protein)] | – | 5 |
